Data as given in patent publication US6391608.

Test system: PleI restriction endonuclease (Pseudomonas lemoignei)
Assay: cleavage_in_vitro
Settings: approximate yield of recombinant PleI; five of six clones active; recognition site not given

Work on “DNA substrate with PleI sites (sequence not stated)” yielded an activity (units/gram of cells) of 100000.
